Format in all cases: cell-based
Test [1] relates to sheep erythrocytes. Briefly: Anti-haemolytic assay: classical pathway mediated haemolysis of sheep erythrocytes, presence of bovine serum albumin. To be noted: 40 mg/ml BSA (fatty acid free); non-stick plates; Example 3; read-out: IH50 (the source's name). Here is the method: Anti-Complement Activity of Acylated Peptide/APT154 Conjugates in the Presence of Bovine Serum Albumin (BSA)
7 wells of each of 4 lanes, missing the uppermost well, on a flat-bottomed microtitre plate were filled with 200 μL of the BSA/diluent solution. Into the uppermost wells, the required volume each test/control sample (APT3328, APT33330, APT33331 and APT070) was aliquotted, immediately followed by enough BSA/diluent solution to make the total volume up to 300 μL, to ensure a final concentration of 1.2 μM.
These 1.2 μM wells were then diluted across a 3 log dilution gradient and the rest of the assay performed as for the peptide/APT154 conjugates. The BSA diluent solution was used instead of pure diluent except for the Ao lane of the reaction plate, for which pure diluent (50 μL) and the BSA/diluent solution (50 μL) were aliquotted. The whole assay was repeated.
[…] In the Ao lane of the reaction plate, for which pure diluent (50 μL) and the BSA/diluent solution (50 μL) were aliquotted.
Multiple anti-haemolytic assays were performed on the reaction mixture of more than one batch of APT3147, in the presence and absence of fatty acid free bovine serum albumin (BSA) at both 4 mg/ml and 40 mg/ml, on non-stick plates.

Test [2] deals with sheep erythrocytes. Briefly: Anti-haemolytic assay: classical pathway mediated haemolysis of sheep erythrocytes, absence of albumin. To be noted: No BSA; non-stick plates; Example 3; read-out: IH50 (the source's name). Here is the method:
The Anti-complement activity of the modified SCR1-3 agents was measured by classical pathway mediated haemolysis of sheep erythrocytes.
Step 1—The Dilution Plate
7 wells of each of 9 lanes, missing the uppermost well, on a flat-bottomed microtitre plate were filled with 200 μL of diluent (0.100 M Hepes, 0.150 M NaCl, 0.100% gelatin, adding NaOH to pH 7.4).
Into the uppermost wells, the required volume of each test/control sample was aliquotted, immediately followed by enough diluent to make the total volume up to 300 μL, to ensure a final concentration of 1.2 μM.
Using a multichannel Gilson pipette, all 9 top wells were mixed and 100 μL were transferred from these wells to the corresponding wells in 2nd row. […]
After incubation the plates were centrifuged at 1600 rpm for 3 min and the Nescofilm removed. 150 μL of supernatant from each well of the two plates was then transferred into the corresponding wells of two new microtitre plates and the absorbance of each well measured at 405 nm using a plate reader.
% inhibition was calculated using the following formula:
[formula] wherein: • Ao=the mean value of the absorbances in lane 1 • Amax=the mean value of the absorbances in lane 2 • t=the mean of the two absorbance values for each sample at any given concentration. […]

Test [3] has as its system MAC formation on guinea pig erythrocytes. Briefly: Reactive lysis system: inhibition of MAC formation on guinea pig erythrocytes. To be noted: for IC50: read-out: IH50 (concentration of protein required to achieve 50% inhibition of lysis). Here is the method:
The ability of APT2439, APT3073 and APT3280 to inhibit MAC formation on guinea pig erythrocytes, was tested in a reactive lysis system. The effect of human albumin (HSA) on this activity was also investigated. Test samples were prepared at a range of concentrations in the presence or absence of 8 mg/ml fatty acid free HSA (Sigma, UK). 50 μL of these dilutions was added to 50 μL of a 5% suspension of guinea pig erythrocytes in PBS/0.1% gelatin, and incubated for 30 minutes at 37° C. 10 μL of human C5b6 complex (C5b6 was partially purified from acute phase serum) in PBS containing 15 mM EDTA and 0.1% gelatin, was added to the guinea pig erythrocyte suspension. 40 μL of normal human serum, diluted in PBS containing 15 mM EDTA and 0.1% gelatin was added as a source of C7, C8 and C9, and the suspension was incubated for 1 hour at 37 degrees Celsius. (The concentrations of C5b6 and normal human serum required to achieve about 80% lysis of guinea pig erythrocytes was pre-determined by titration.) The reaction mixtures were centrifuged for 5 minutes at 1000×g and the degree of haemolysis was determined by measuring the absorbance of the supernatant at 410 nm. To determine background lysis, a control reaction was prepared without serum. To determine maximal lysis, a control reaction containing no inhibitor (or test sample) was prepared. The percentage inhibition of haemolysis was determined for each protein at each concentration. An IH50 value (the concentration of protein required to achieve 50% inhibition of lysis) was determined for each protein in the presence and absence of HSA.

Like-named read-outs stand apart in the source and are kept apart here. Ends that are not written are not given here.

For the molecule “APT3147: bismyr-GSSKSPSKKKKKKPGDC conjugated to SCR1-3; SEQ ID NO: 26; two myristoyl groups (not fully specified (N-terminus); printed as bismyr-GSSKSPSKKKKKKPGDC; also: two myristoyl groups (bismyr-), places not given here, conjugated to SCR1-3) [bismyr-… conjugated to SCR1-3; two myristoyl groups]”, the IC50 with sheep erythrocytes [1] and in the test with sheep erythrocytes [2] was 2.2 nM each time.

B1: APT2439: Recombinant human CD59 (lacking the GPI anchor), with an amino-terminal methionine and a carboxy-terminal cysteine, expressed in E. coli (protein)
chain: MLQCYNCPNPTADCKTAVNCSSDFDACLITKAGLQVYNKCWKFEHCNFNDVTTRLRENELTYYCCKKDLCNFNEQLENC
In the case of B1, the IC50 in test [3] (Presence of HSA (2.7 mg/ml)) was 400 nM. Also, in test [3] (absence of HSA), the “concentrations required to achieve complete inhibition of haemolysis” value is recorded as “mM concentrations” and the IC50 stood at 600 nM. Further, the “decrease in potency in the presence of HSA” value in test [3] (presence of HSA) is given as “did not demonstrate any decrease in potency”.

B2: APT3280: disulphide conjugate of APT2439 and APT3146 (thiopyridylated bisMyr-KSSKSPSKKDDKKPGDC) (conjugate)
chain: B1 chain
peptide: KSSKSPSKKDDKKPGDC
For B2, the IC50 in test [3] (Presence of HSA (2.7 mg/ml)) turned out to be 0.08 nM; in test [3] (absence of HSA) it was 0.1 nM. Moreover, the “increase in potency compared to APT2439” value in test [3] (absence of HSA) is recorded as roughly 4 log. The “decrease in potency in the presence of HSA” value in test [3] (presence of HSA) is reported as “did not demonstrate any decrease in potency”.

B3: APT3073: disulphide conjugate of APT2439 and APT2258 (Myr-GSSKSPSKKDDKKPGDC (2-SPy)-NH2) (conjugate)
chain: B1 chain
peptide: GSSKSPSKKDDKKPGDC
For B3, the IC50 in test [3] (Presence of HSA (2.7 mg/ml)) came to 6 nM. Moreover, in test [3] (absence of HSA), the “increase in potency compared to APT2439” value is recorded as roughly 3 log and the IC50 came out at 0.8 nM. Besides, in test [3] (presence of HSA, final concentration 2.7 mg/ml), the “decrease in potency compared to its potency in the absence of HSA” value came to 1 log.

Source of the values: US8455447B2, “Modified therapeutic agents” (priority 2002, dated 2013).
